Assay results as given in US20240117030A1 (Pfizer, published 2024).

T1: recombinant human IL-33 (human, UniProt O95760 112-270, limits assumed)
T1 sequence (looked up): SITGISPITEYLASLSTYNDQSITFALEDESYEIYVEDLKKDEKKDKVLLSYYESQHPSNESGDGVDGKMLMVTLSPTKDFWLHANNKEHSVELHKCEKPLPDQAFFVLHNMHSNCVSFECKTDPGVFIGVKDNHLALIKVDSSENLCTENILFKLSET

T2: recombinant human IL-4 (human, UniProt P05112 25-153)
T2 sequence (looked up): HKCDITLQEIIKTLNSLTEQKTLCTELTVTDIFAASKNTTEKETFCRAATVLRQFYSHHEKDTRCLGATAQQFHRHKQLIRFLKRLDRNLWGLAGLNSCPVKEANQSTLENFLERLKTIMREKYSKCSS

B1: IL13433-0006 (other)
heavy: EVQLVESGGGLVQPGGSLRLSCAASGFTFSSYAMSWVRQAPGKGLEWVASISSGDTTYYPDSVKGRFTISRDNAKNSLYLQMNSLRAEDTAVYYCARNEGYYFGLTLWGQGTLVTVSSASTKGPSVFPKAPSSKSTSGGTAALGCLVKDYFPEPVTVSWNSGALTSGVHTFPAVLQSSGLYSLSSSVTVPSSSLGTQTYICNVNHKPSNTKVDKKVEPKSCDKTHTCPPCPAPEAAGAPSVFLFPPKPKDTLMISRTPEVTCVVVDVSHEDPEVKFNWYVDGVEVHNAKTKPREEQYNSTYRVVSVLTVLHQDWLNGKEYKCKVSNKALPAPIEKTISKAKGQPREPQVCTLPPSREEMTKNQVSLWCLVKGFYPSDIAVEWESNGQPENNYKTTPPVLDSDGSFFLYSKLTVDKSRWQQGNVFSCSVMHEALHNHYTQKSLSLSPGK
chain 1: DIQMTQSPSSLSASVGDRVTITCKASQNINKHLDWYQQKPGKAPKLLIYFTNNLQTGVPSRFSGSGSGTDFTLTISSLQPEDFATYYCFQYNQGWTFGGGTKVEIKRTVAAPSVFIFPPSDEQLKSGTASVVCLLNNFYPREAKVQWKVDNALQSGNSQESVTEQDSKDSTYSLSSTLTLSKADYEKHKVYACEVTHQGLSSPVTKSFNRGECGGGGSEVTLRESGPALVKPTQTLTLTCTFSGFSLSNFGEGLSWIRQPPGKGLEWLAHIYWDDDKRYNPSLKSRLTISKDTSRNQVVLTMTNMDPVDTATYYCARRETVFYWYFDVWGQGTTVTVSSASTKGPSVFPEAPSSKSTSGGTAALGCLVKDYFPEPVTVSWNSGALTSGVHTFPAVLQSSGLYSLGSVVTVPSSSLGTQTYICNVNHKPSNTKVDKKVEPKSCDKTHTCPPCPAPEAAGAPSVFLFPPKPKDTLMISRTPEVTCVVVDVSHEDPEVKFNWYVDGVEVHNAKTKPREEQYNSTYRVVSVLTVLHQDWLNGKEYKCKVSNKALPAPIEKTISKAKGQPREPQVYTLPPCREEMTKNQVSLSCAVKGFYPSDIAVEWESNGQPENNYKTTPPVLDSDGSFFLVSKLTVDKSRWQQGNVFSCSVMHEALHNHYTQKSLSLSPGK
light 1: DIQMTQSPSSLSASVGDRVTITCKASESVDHFGWSLVHWYQQKPGKAPKLLIYRASNLESGVPSRFSGSGSGTDFTLTISSLQPEDFATYYCQQSNEDPWTFGGGTKVEIKRTVAAPSVFIFPPSDEQLKSGTASVSCLLNNFYPREAKVQWKVDNALQSGNSQESVTEQDSKDSTYSLDSTLTLSKADYEKHKVYACEVTHQGLSSPVTKSFNRGEC
light 2: DIQMTQSPSSLSASVGDRVTITCKASQSVDEDGDSYMNWYQQKPGKAPKLLIYAASNLESGVPSRFSGSGSGTDFTLTISSLQPEDFATYYCQQSNEDPPTFGGGTKVEIKRTVAAPSVFIFPPSDEQLKSGTASVSCLLNNFYPREAKVQWKVDNALQSGNSQESVTEQDSKDSTYSLKSTLTLSKADYEKHKVYACEVTHQGLSSPVTKSFNRGEC
chain 2: EVQLVESGGGLVQPGGSLRLSCAASGFTFSSYWMYWVRQAPGKGLEWVAAITPNAGEDYYPESVKGRFTISRDNAKNSLYLQMNSLRAEDTAVYYCARGHYYYTSYSLGYWGQGTLVTVSSASTKGPSVFPLAPSSKSTSGGTAALGCLVKDYFPEPVTVSWNSGALTSGVHTFPAVLQSSGLYSLSSVVTVPSSSLGTQTYICNVNHKPSNTKVDKKVEPKSC
B2: IL13433-1042 (other)
heavy: EVQLVESGGGLVQPGGSLRLSCAASGFTFSSYWMYWVRQAPGKGLEWVAAITPNAGEDYYPESVKGRFTISRDNAKNSLYLQMNSLRAEDTAVYYCARGQYYYTKYSLGYWGQGTLVTVSSASTKGPSVFPLAPSSKSTSGGTAALGCLVKDYFPEPVTVSWNSGALTSGVHTFPAVLQSSGLYSLSSVVTVPSSSLGTQTYICNVNHKPSNTKVDKKVEPKSCRKTHTCPRCPAPEAAGAPSVFLFPPKPKDTLMISRTPEVTCVVVDVSHEDPEVKFNWYVDGVEVHNAKTKPREEQYNSTYRVVSVLTVLHQDWLNGKEYKCKVSNKALPAPIEKTISKAKGQPREPQVYTLPPSREEMTKNQVSLTCLVKGFYPSDIAVEWESNGQPENNYKTTPPVLDSDGSFFLYSRLTVDKSRWQQGNVFSCSVLHEALHSHYTQKSLSLSPGK
chain 1: DIQMTQSPSSLSASVGDRVTITCKASESVDHFGWSLVHWYQQKPGKAPKLLIYRASNLESGVPSRFSGSGSGTDFTLTISSLQPEDFATYYCQQSNEDPWTFGGGTKVEIKRTVAAPSVFIFPPSDEQLKSGTASVVCLLNNFYPREAKVQWKVDNALQSGNSQESVTEQDSKDSTYSLSSTLTLSKADYEKHKVYACEVTHQGLSSPVTKSFNRGECGGGGSEVTLRESGPALVKPTQTLTLTCTFSGFSLSNFGEGLSWIRQPPGKGLEWLAHIYWDDDKRYNPSLKSRLTISKDTSRNQVVLTMTNMDPVDTATYYCARRETVFYWYFDVWGQGTTVTVSSASTKGPSVFPLAPSSKSTSGGTAALGCLVKDYFPEPVTVSWNSGALTSGVHTFPAVLQSSGLYSLSSVVTVPSSSLGTQTYICNVNHKPSNTKVDKKVEPKSCEKTHTCPECPAPEAAGAPSVFLFPPKPKDTLMISRTPEVTCVVVDVSHEDPEVKFNWYVDGVEVHNAKTKPREEQYNSTYRVVSVLTVLHQDWLNGKEYKCKVSNKALPAPIEKTISKAKGQPREPQVYTLPPSREEMTKNQVSLTCEVKGFYPSDIAVEWESNGQPENNYKTTPPVLDSDGSFFLYSKLTVDKSRWQQGNVFSCSVLHEALHSHYTQKSLSLSPGK
light 1: DIQMTQSPSSLSASVGDRVTITCRASQPIHNHLDWYQQKPGKAPKLLIYFGKNLQEGVPSRFSGSGSGTDFTLTISSLQPEDFATYYCFQYKKGWSFGGGTKVEIKRTVAAPSVFIFPPSDEQLKSGTASVVCLLNNFYPREAKVQWKVDNALQSGNSQESVTEQDSKDSTYSLSSTLTLSKADYEKHKVYACEVTHQGLSSPVTKSFNRGEC
light 2: DIQMTQSPSSLSASVGDRVTITCRASQSVDEEGDSYMNWYQQKPGKAPKLLIYAASNLESGVPSRFSGSGSGTDFTLTISSLQPEDFATYYCQQSNEDPPTFGGGTKVEIKRTVAAPSVFIFPPSDEQLKSGTASVVCLLNNFYPREAKVQWKVDNALQSGNSQESVTEQDSKDSTYSLSSTLTLSKADYEKHKVYACEVTHQGLSSPVTKSFNRGEC
chain 2: EVQLVESGGGLVQPGGSLRLSCAASGFTFSSYAMSWVRQAPGKGLEWVASISSGDTTYYPDSVKGRFTISRDNAKNSLYLQMNSLRAEDTAVYYCARNEGYYFGLTLWGQGTLVTVSSASTKGPSVFPLAPSSKSTSGGTAALGCLVKDYFPEPVTVSWNSGALTSGVHTFPAVLQSSGLYSLSSVVTVPSSSLGTQTYICNVNHKPSNTKVDKKVEPKSC
B3: IL13433-1261 (other)
heavy: EVQLVESGGGLVQPGGSLRLSCAASGFTFSSYWMYWVRQAPGKGLEWVAAITPNAGEDYYPESVKGRFTISRDNAKNSLYLQMNSLRAEDTAVYYCARGQYYYTKYSLGYWGQGTLVTVSSASTKGPSVFPLAPSSKSTSGGTAALGCLVKDYFPEPVTVSWNSGALTSGVHTFPAVLQSSGLYSLSSVVTVPSSSLGTQTYICNVNHKPSNTKVDKKVEPKSCDKTHTCPPCPAPEAAGAPSVFLFPPKPKDTLMISRTPEVTCVVVDVSHEDPEVKFNWYVDGVEVHNAKTKPREEQYNSTYRVVSVLTVLHQDWLNGKEYKCKVSNKALPAPIEKTISKAKGQPREPQVYTLPPSREEMTKNQVSLTCLVKGFYPSDIAVEWESNGQPENNYKTTPPVLDSDGSFFLYSRLTVDKSRWQQGNVFSCSVLHEALHSHYTQKSLSLSPGK
chain 1: DIQMTQSPSSLSASVGDRVTITCKASESVDHFGWSLVHWYQQKPGKAPKLLIYRASNLESGVPSRFSGSGSGTDFTLTISSLQPEDFATYYCQQSNEDPWTFGGGTKVEIKRTVAAPSVFIFPPSDEQLKSGTASVVCLLNNFYPREAKVQWKVDNALQSGNSQESVTEQDSKDSTYSLSSTLTLSKADYEKHKVYACEVTHQGLSSPVTKSFNRGECGGGGSEVTLRESGPALVKPTQTLTLTCTFSGFSLSNFGEGLSWIRQPPGKGLEWLAHIYWDDDKRYNPSLKSRLTISKDTSRNQVVLTMTNMDPVDTATYYCARRETVFYWYFDVWGQGTTVTVSSASTKGPSVFPLAPSSKSTSGGTAALGCLVKDYFPEPVTVSWNSGALTSGVHTFPAVLQSSGLYSLSSVVTVPSSSLGTQTYICNVNHKPSNTKVDKKVEPKSCDKTHTCPPCPAPEAAGAPSVFLFPPKPKDTLMISRTPEVTCVVVDVSHEDPEVKFNWYVDGVEVHNAKTKPREEQYNSTYRVVSVLTVLHQDWLNGKEYKCKVSNKALPAPIEKTISKAKGQPREPQVYTLPPSREEMTKNQVSLTCEVKGFYPSDIAVEWESNGQPENNYKTTPPVLDSDGSFFLYSKLTVDKSRWQQGNVFSCSVLHEALHSHYTQKSLSLSPGK
light 1: DIQMTQSPSSLSASVGDRVTITCRASQPIHNHLDWYQQKPGKAPKLLIYFGKNLQEGVPSRFSGSGSGTDFTLTISSLQPEDFATYYCFQYKKGWSFGGGTKVEIKRTVAAPSVFIFPPSDEQLKSGTASVVCLLNNFYPREAKVQWKVDNALQSGNSQESVTEQDSKDSTYSLSSTLTLSKADYEKHKVYACEVTHQGLSSPVTKSFNRGEC
light 2: DIQMTQSPSSLSASVGDRVTITCRASQSVDEEGDSYMNWYQQKPGKAPKLLIYAASNLESGVPSRFSGSGSGTDFTLTISSLQPEDFATYYCQQSNKDPPTFGGGTKVEIKRTVAAPSVFIFPPSDEQLKSGTASVVCLLNNFYPREAKVQWKVDNALQSGNSQESVTEQDSKDSTYSLSSTLTLSKADYEKHKVYACEVTHQGLSSPVTKSFNRGEC
chain 2: EVQLVESGGGLVQPGGSLRLSCAASGFTFSSYAMSWVRQAPGKGLEWVASISSGDTTYYPDSVKGRFTISRDNAKNSLYLQMNSLRAEDTAVYYCARNEGYYFGLTLWGQGTLVTVSSASTKGPSVFPLAPSSKSTSGGTAALGCLVKDYFPEPVTVSWNSGALTSGVHTFPAVLQSSGLYSLSSVVTVPSSSLGTQTYICNVNHKPSNTKVDKKVEPKSC

Legend:
Test in all cases: cell-based or functional assay
[1] = biological target: T1, recombinant human IL-33
[2] = biological target: T2, recombinant human IL-4
[3] = biological target: recombinant human IL-13 (human, UniProt P35225 35-146)
Chain of recombinant human IL-13 (P35225 35-146 limits assumed): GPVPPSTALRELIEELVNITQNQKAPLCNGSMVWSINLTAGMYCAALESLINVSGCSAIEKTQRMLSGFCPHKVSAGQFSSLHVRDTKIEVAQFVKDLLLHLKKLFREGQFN

| Binder | IL-33 WT Activation of SEAP Reporter Cells, potency of cytokine neutralization [1] [pM] | IL-4 Induced CD23 Expression, potency of cytokine neutralization [2] [pM] | IL-13 Induced CD23 Expression, potency of cytokine neutralization [3] [pM] |
| --- | --- | --- | --- |
| B1 | 112 | 10.3 | 9.01 |
| B2 | 28 | 7.1 | 12.4 |
| B3 | 21 | 13.9 | 8.97 |
